Holding throughout (assay): BLI; 6×His-ZapC or its mutants (0.5 µM) loaded on Ni-NTA biosensors, untagged FtsZ or its variants in solution; Octet-Red96, 30°C, 1× Pol buffer (50 mM HEPES-NaOH pH 6.8, 50 mM KCl, 10 mM MgCl2); apparent Kd from the signal at the end of association against concentration, one-site fit; three repeats with mean (X) and SD
Common to all, as to conditions: both partners purified

For assay [1], the target named is T1, FtsZ (untagged, wild type) (Escherichia coli, UniProt P0A9A6 1-383).
T1 construct: also called wild-type FtsZ; source: E. coli BL21(DE3), plasmid pLY17, purified (Ni-NTA); 6×His-SUMO tag removed with Ulp1; not shown: 6×His-SUMO, N-terminal, cleaved
T1 sequence (looked up): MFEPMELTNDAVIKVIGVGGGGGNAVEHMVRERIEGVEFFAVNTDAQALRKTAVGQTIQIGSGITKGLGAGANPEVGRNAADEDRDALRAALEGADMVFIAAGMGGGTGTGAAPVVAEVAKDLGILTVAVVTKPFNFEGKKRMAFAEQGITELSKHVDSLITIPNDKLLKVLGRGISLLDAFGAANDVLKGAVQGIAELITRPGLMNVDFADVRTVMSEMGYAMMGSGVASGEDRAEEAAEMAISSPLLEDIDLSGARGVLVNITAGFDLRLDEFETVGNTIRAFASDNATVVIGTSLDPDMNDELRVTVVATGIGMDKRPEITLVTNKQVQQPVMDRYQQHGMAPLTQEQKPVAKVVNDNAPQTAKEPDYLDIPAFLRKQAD

For assay [2], the target named is T2, FtsZ A376T (untagged) (Escherichia coli, UniProt P0A9A6 1-383, A376T).
T2 construct: FtsZ of Escherichia coli with A376T (CTP); Derivative of pLY17 by site-directed mutagenesis; source: E. coli BL21(DE3), plasmid pLY22, purified (Ni-NTA); 6×His-SUMO tag removed with Ulp1; not shown: 6×His-SUMO, N-terminal, cleaved
T2 sequence (looked up): T1 sequence (looked up) with A376T

Assay [3] deals with T3, FtsZ 1-330 (untagged) (Escherichia coli, UniProt P0A9A6 1-330).
T3 construct: FtsZ of Escherichia coli, residues 1-330; lacks most of the CTL and the CTP; Primers BsaI-out-F and 330XbaI-out-R; forward primer starts at codon 2; source: E. coli BL21(DE3), plasmid pLY340, purified (Ni-NTA); 6×His-SUMO tag removed with Ulp1; not shown: 6×His-SUMO, N-terminal, cleaved
T3 sequence (looked up): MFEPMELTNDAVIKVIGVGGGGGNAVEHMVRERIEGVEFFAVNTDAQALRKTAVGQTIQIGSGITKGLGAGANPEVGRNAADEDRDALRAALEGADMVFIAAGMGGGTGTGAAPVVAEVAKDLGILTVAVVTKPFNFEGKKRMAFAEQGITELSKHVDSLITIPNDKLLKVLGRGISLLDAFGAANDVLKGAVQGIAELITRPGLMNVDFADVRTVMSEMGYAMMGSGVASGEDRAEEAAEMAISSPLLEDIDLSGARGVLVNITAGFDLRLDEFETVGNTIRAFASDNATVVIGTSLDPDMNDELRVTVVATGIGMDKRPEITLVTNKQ

Assay [4] concerns the target T4, FtsZ F285S (untagged) (Escherichia coli, UniProt P0A9A6 1-383, F285S).
T4 construct: FtsZ of Escherichia coli with F285S (globular domain); Derivative of pLY17 by site-directed mutagenesis; insert starts at codon 2 as in pLY17; source: E. coli BL21(DE3), plasmid pLY19, purified (Ni-NTA); 6×His-SUMO tag removed with Ulp1; not shown: 6×His-SUMO, N-terminal, cleaved
T4 sequence (looked up): T1 sequence (looked up) with F285S

Residue numbers refer to the chain shown, from its start. “And” between values parts separate entries of the source, which are not always exact repeats. Equal entries are not always repeated.

B1: 6×His-ZapC (natural protein)
chain: not shown
notes: ZapC, FtsZ-associated protein of Escherichia coli; Construction of pSD323 is not described; also called His-tagged ZapC; source: E. coli, plasmid pSD323 (pQE80, Plac::6×His-ZapC), purified (Ni-NTA); not shown: His6, N-terminal, kept
For the molecule B1, the Kd was 377 nM and 395 nM and 488 nM and 420 nM in assay [1]; 859 nM and 778 nM and 821 nM and 819 nM in assay [2]; 1610 nM and 1810 nM and 1590 nM and 1670 nM in assay [3]; 5020 nM and 6370 nM and 6130 nM and 5840 nM in assay [4].

(Values after publication PMC12607630, “ZapC crosslinks FtsZ filaments through a dual-binding mechanism modulated by the intrinsically disordered linker of FtsZ in Escherichia coli” (mBio, 2025).)
